Target: the molecule itself
Test: non-reducing SDS-PAGE with immunoblot

B1: N-terminal HA-tagged PKD2 mutant L703X (domain or fragment, human, UniProt Q13563 1-702, looked up)
chain: MVNSSRVQPQQPGDAKRPPAPRAPDPGRLMAGCAAVGASLAAPGGLCEQRGLEIEMQRIRQAAARDPPAGAAASPSPPLSSCSRQAWSRDNPGFEAEEEEEEVEGEEGGMVVEMDVEWRPGSRRSAASSAVSSVGARSRGLGGYHGAGHPSGRRRRREDQGPPCPSPVGGGDPLHRHLPLEGQPPRVAWAERLVRGLRGLWGTRLMEESSTNREKYLKSVLRELVTYLLFLIVLCILTYGMMSSNVYYYTRMMSQLFLDTPVSKTEKTNFKTLSSMEDFWKFTEGSLLDGLYWKMQPSNQTEADNRSFIFYENLLLGVPRIRQLRVRNGSCSIPQDLRDEIKECYDVYSVSSEDRAPFGPRNGTAWIYTSEKDLNGSSHWGIIATYSGAGYYLDLSRTREETAAQVASLKKNVWLDRGTRATFIDFSVYNANINLFCVVRLLVEFPATGGVIPSWQFQPLKLIRYVTTFDFFLAACEIIFCFFIFYYVVEEILEIRIHKLHYFRSFWNCLDVVIVVLSVVAIGINIYRTSNVEVLLQFLEDQNTFPNFEHLAYWQIQFNNIAAVTVFFVWIKLFKFINFNRTMSQLSTTMSRCAKDLFGFAIMFFIIFLAYAQLAYLVFGTQVDDFSTFQECIFTQFRIILGDINFAEIEEANRVLGPIYFTTFVFFMFFILLNMFLAIINDTYSEVKSDLAQQKAEMELSD
stoichiometry N: 2

Reference: publication PMC2568912 (The Journal of Biological Chemistry, 2008)
